# Earlier results in publication PMC12332068.
# Tests used:
# [1] = molecular target: Bzz1 SH3#1 (Saccharomyces cerevisiae) (UniProt P38822); assay: BLI
# [2] = molecular target: Bzz1 SH3#1-2 (Saccharomyces cerevisiae) (UniProt P38822); assay: BLI
substance,measurement,setting,value
Las17 300-422 (from UniProt Q12446),Kd,[1],7.5 µM
same,Kd,[2],0.087 µM
